In the RNAGym collection of RNA variant scans (doi:10.7554/elife.80360) one finds self-cleavage data, which are given here for 32 variants.

To fix the notation:
B1: HDV Ribozyme (parent)
chain: GGCCGGCAUGGUCCCAGCCUCCUCGCUGGCGCCGGCUGGGCAACAUUCCGAGGGGACCGUCCCCUCGGUAAUGGCGAAUGGGACCCA

The variants in the data set derive from B1. Put plainly: self-cleavage, relative activity (ratio to wild type); higher = more cleavage; co-transcriptional.
Consider GGCCGGCAUGGUCCCAGCCUCCUCGCUGGCGACGGCUGGGCAUCAUUCCGAGGGGACCGUCCCCUCGGUAAUGGCGAAUGGGACCCA, for which the self-cleavage turned out to be 0.108.
The value for GGCCGGCAUGGUCCCAGCCUCCUCGCUGGCGACGGCUGGGCAGCAUUCCGAGGGGACCGUCCCCUCGGUAAUGGCGAAUGGGACCCA was 0.119; that for GGCCGGCAUGGUCCCAGCCUCCUCGCUGGCGACGGCUGGGCACCAUUCCGAGGGGACCGUCCCCUCGGUAAUGGCGAAUGGGACCCA was 0.162; that for GGCCGGCAUGGUCCCAGCCUCCUCGCUGGCGACGGCUGGGCAACAUUCCGAGGGGACCGUCCCCUCGGUCAUGGCGAAUGGGACCCA was 0.101.
Turning to GGCCGGCAUGGUCCCAGCCUCCUCGCUGGCGACGGCUGGGCAACAUUCCGAGGGGACCGUCCCCUCGGUAGUGGCGAAUGGGACCCA, the self-cleavage was 0.128.
The value for GGCCGGCAUGGUCCCAGCCUCCUCGCUGGCUCCGGCUGGGCAACAUUCCGAGGGGACCGUCCCCUCGGUAAUGGCGAAGGGGACCCA was 0.147.
On to GGCCGGCAUGGUCCCAGCCUCCUCGCUGGCUCCGGCUGGGCAACAUUCCGAGGGGACCGUCCCCUCGGUAAUGGCGAAAGGGACCCA, for which the self-cleavage came out at 0.148.
GGCCGGCAUGGUCCCAGCCUCCUCGCUGGCGACGGCUGGGCAACAUUCCGAGGGGCCCGUCCCCUCGGUAAUGGCGAAUGGGACCCA: the self-cleavage was 0.293.
Turning to GGCCGGCAUGGUCCCAGCCUCCUCGCUGGCGACGGCUGGGCAACAUUCCGAGGGGGCCGUCCCCUCGGUAAUGGCGAAUGGGACCCA, the self-cleavage is 0.252.
As to GGCCGGCAUGGUCCCAGCCUCCUCGCUGGCUCCGGCUGGGCAACAUUCCAAGGGGACCGUCCCCUCGGUAAUGGCGAAUGGGACCCA, the self-cleavage came to 0.674.
Take GGCCGGCAUGGUCCCAGCCUCCUCGCUGGCUCCGGCUGGGCAACAUUCCGAGGGGACCGUCCCCUCCGUAAUGGCGAAUGGGACCCA: the self-cleavage is 0.245.
The value for GGCCGGCAUGGUCCCAGCCUCCUCGCUGGCUCCGGCAGGGCAACAUUCCGAGGGGACCGUCCCCUCGGUAAUGGCGAAUGGGACCCA was 0.172.
The value for GGCCGGCAUGGUCCCAGCCUCCUCGCUGGCUCCGGCCGGGCAACAUUCCGAGGGGACCGUCCCCUCGGUAAUGGCGAAUGGGACCCA was 0.415.
The value for GGCCGGCAUGGUCCCAGCCUCCUCGCUGGCUCCGGCUGGGCAACAUUCCGAGGGGACCGUCCCCUCGGUAAUGGCGAAUUGGACCCA was 0.0675; that for GGCCGGCAUGGUCCCAGCCUCCUCGCUGGCUCCGGCUGGGCAACAUUCCGAGGGGACCGUCCCCUCGGUAAUGGCGAAUAGGACCCA was 0.0519; that for GGCCGGCAUGGUCCCAGCCUCCUCGCUGGCUCCGGCUGGGCAACAUUCCGAGGGGACCGUCCCCUCGGUAAUAGCGAAUGGGACCCA was 0.0627.
In the case of GGCCGGCAUGGUCCCAGCCUCCUCGCUGGCUCCGGCUGGGCAACAUUCCGAGGGGACCGUCCCCUCGGUAAUUGCGAAUGGGACCCA, the self-cleavage was 0.171.
The value for GGCCGGCAUGGUCCCAGCCUCCUCGCUGGCUCCGGCUGGGCAACAUUCCGAGGGGACCGUCCCCUCGGUAAUCGCGAAUGGGACCCA was 0; that for GGCCGGCAUGGUCCCAGCCUCCUCGCUGGCGACGGCUGGGCAACAUUCCGAGGGGACCGUCCCCUCGGUAAUGGCGCAUGGGACCCA was 0.219; that for GGCCGGCAUGGUCCCAGCCUCCUCGCUGGCUCCGGCUGGGCAACAUUCCGAGGGGACCGUCCCCUCGGUAAAGGCGAAUGGGACCCA was 0.141.
Take GGCCGGCAUGGUCCCAGCCUCCUCGCUGGCUCCGGCUGGGCAACAUUCCGAGGGGACCGUCCCCUCGGUAAGGGCGAAUGGGACCCA: the self-cleavage is 0.128.
With GGCCGGCAUGGUCCCAGCCUCCUCGCUGGCGACGGCUGGGCAACAUUCCGAGGGGACCGUCCCCUCGGUAAUGGCGAGUGGGACCCA, the self-cleavage is 0.113.
The value for GGCCGGCAUGGUCCCAGCCUCCUCGCUGGCGACGGCUGGGCAACAUUCCGAGGGGACCGUCCCCUCGGUAAUGGCGACUGGGACCCA was 0.0665; that for GGCCGGCAUGGUCCCAGCCUCCUCGCUGGCUCCGGCUGGCCAACAUUCCGAGGGGACCGUCCCCUCGGUAAUGGCGAAUGGGACCCA was 0.0519.
The value for GGCCGGCAUGGUCCCAGCCUCCUCGCUGGCUCCGGCUGUGCAACAUUCCGAGGGGACCGUCCCCUCGGUAAUGGCGAAUGGGACCCA was 0.285.
Turning to GGCCGGCAUGGUCCCAGCCUCCUCGCUGGCUCCGGCUGGGCAACAUUCCGAGGGGACCGUCCCCUCGGUAAUGGCGAAUGGGACCAA, the self-cleavage was 0.394.
Turning to GGCCGGCAUGGUCCCAGCCUCCUCGCUGGCUCCGGCUGGGCAACAUUCCGAGGGGACCGUCCCCUCGGUAAUGGCGAAUGGGACCGA, the self-cleavage came out at 0.451.
For the variant GGCCGGCAUGGUCCCAGCCUCCUCGCUGGCUCCGGCUGGGCAACAUACCGAGGGGACCGUCCCCUCGGUAAUGGCGAAUGGGACCCA, the self-cleavage was 0.406.
As for GGCCGGCAUGGUCCCAGCCUCCUCGCUGGCGACGGCUGGGCUACAUUCCGAGGGGACCGUCCCCUCGGUAAUGGCGAAUGGGACCCA, the self-cleavage amounted to 0.166.
Turning to GGCCGGCAUGGUCCCAGCCUCCUCGCUGGCUCCGUCUGGGCAACAUUCCGAGGGGACCGUCCCCUCGGUAAUGGCGAAUGGGACCCA, the self-cleavage worked out at 0.0443.
The value for GGCCGGCAUGGUCCCAGCCUCCUCGCUGGCUCCGGCUGGGCAACAUUCCGAGGGGACCGUCCCCUCGGUAAUGGCGAAUGAGACCCA was 0.162; that for GGCCGGCAUGGUCCCAGCCUCCUCGCUGGCUCCGGCUGGGCAACAUUCCGAGGGGACCGUCCCCUCGGUAAUGGCGAAUGCGACCCA was 0.208.
